Data reported in PMC4293902, “Biochemical and structural characterization of the apicoplast dihydrolipoamide dehydrogenase of Plasmodium falciparum” (Bioscience Reports, 2015).
Values belong to the molecule of their own block, whether it stands above or below them.

Legend:
[1] = biological target: Plasmodium falciparum apicoplast dihydrolipoamide dehydrogenase (PfaE3), recombinant mature-length, N-terminal His-tag (Plasmodium falciparum 3D7); test: SAXS; EMBL beamline X33, DESY; 10°C; PfaE3 at 9, 8, 6, 5 and 4 μM; Guinier, p(r) and ab initio DAM with P2 symmetry
[2] = biological target: Plasmodium falciparum apicoplast dihydrolipoamide dehydrogenase (PfaE3), recombinant mature-length, N-terminal His-tag (Plasmodium falciparum 3D7); test: SEC; HiLoad 16/60 Superdex 200, calibrated; 50 mM potassium phosphate, 150 mM NaCl, 2 mM EDTA, pH 7.4; Ni-NTA eluate applied
[3] = biological target: Plasmodium falciparum apicoplast dihydrolipoamide dehydrogenase (PfaE3), recombinant mature-length, N-terminal His-tag (Plasmodium falciparum 3D7); test: AUC; sedimentation equilibrium, 17000 rpm, 4°C, 4.7 to 22.7 μM PfaE3; 50 mM potassium phosphate, 250 mM NaCl, 2 mM EDTA, pH 7.4; interference optics, single species model in SEDPHAT
purified protein [4] = substrate: NC(=O)c1ccc[n+]([C@@H]2O[C@H](COP(=O)(O)OP(=O)(O)OC[C@H]3O[C@@H](n4cnc5c(N)ncnc54)[C@H](O)[C@@H]3O)[C@@H](O)[C@H]2O)c1; test: purified protein; format: biochemical, Plasmodium falciparum; settings: forward reaction, 2 mM DHLA, 50 mM potassium phosphate, 1 mM EDTA, pH 8, 25°C
purified protein [5] = substrate: NC(=O)C1=CN([C@@H]2O[C@H](COP(=O)(O)OP(=O)(O)OC[C@H]3O[C@@H](n4cnc5c(N)ncnc54)[C@H](O)[C@@H]3O)[C@@H](O)[C@H]2O)C=CC1; test: purified protein; format: biochemical, Plasmodium falciparum; settings: reverse reaction, 2 mM lipoamide, 50 mM potassium phosphate, 1 mM EDTA, pH 7, 25°C
purified protein [6] = substrate: NC(=O)CCCC[C@@H](S)CCS; test: purified protein; format: biochemical, Plasmodium falciparum; settings: forward reaction, 2 mM NAD+, 50 mM potassium phosphate, 1 mM EDTA, pH 8, 25°C
purified protein [7] = substrate: NC(=O)CCCC[C@@H]1CCSS1; test: purified protein; format: biochemical, Plasmodium falciparum; settings: reverse reaction, 200 μM NADH, 50 mM potassium phosphate, 1 mM EDTA, pH 7, 25°C

stoichiometry N [1]: 2
stoichiometry N [2]: 2
stoichiometry N [3]: 2
Molecule: Plasmodium falciparum apicoplast dihydrolipoamide dehydrogenase (PfaE3), recombinant mature-length, N-terminal His-tag (enzyme)

B1: PfaE3 (P. falciparum apicoplast E3, dihydrolipoamide dehydrogenase) (Plasmodium falciparum 3D7) (protein)
chain: LKGSTQNIMNINEKEYDLAIIGCGVGGHAAAINAMERNLKVIIFAGDENCIGGTCVNVGCIPSKALLYATNKYRELKNLDKLYYYGIHSNIFQNNKNTEIENNQLVSNSFQINITKLKEYTQSVIDKLRNGISHGFKTLKFNKNSEHVQVIYEHGQLLDKNTIKSKKSGNTYKVKNIIIATGSVPNIPNNVEIDDKSVFTSDMAVKLVGLKNYMSIIGMGIIGLEFADIYTALGSEITFLEYSSELLPIIDNDVAKYFERVFLKNKPVNYHLNTEVKYIKASKNNNPVIIGYSHRTGNDDNEKKNMTDVKELYVDSCLVATGRNPNTQNLGLEKLKIQMNRGYVSVNDNLQVKMENNEIYDNIFCIGDANGKQMLAHTASYQALKVIDFIEKKEKKNVNINVENNLSKPILYKNIPSVCYTNPELAFIGLTEKEAKVLYPDNVGVEISYYKSNSKILCENNISLNNNKKNNSYNKGQYNINDNTNGMVKIIYKEDTKEILGMFIVGNYASVLIHEAVLAINLKLSAFDLAYMVHSHPTVSEVLDTAFKSISKIRTH
notes: mature-length, apicoplast-targeting peptide removed; given as 110-667 in Results but 118-667 in Methods (forward primer at nt 331, i.e. codon 111); N-terminal 6-His tag kept (pQE30), expressed in E. coli NovaBlue (DE3); about 64 kDa, homodimer 128 kDa; 566 residues with tag; some C-terminally truncated form present
Km (purified protein [4]): 96 ± 12 µM
kcat (purified protein [4]): 110 s⁻¹
Km (purified protein [5]): 15 ± 2 µM
kcat (purified protein [5]): 77.8 s⁻¹
Km (purified protein [6]): 1160 ± 105 µM
kcat (purified protein [6]): 110 s⁻¹
Km (purified protein [7]): 841 ± 97 µM
kcat (purified protein [7]): 97 s⁻¹
